This series deals with the molecule itself. As to the kind of experiment: crystal structure; hanging-drop vapor diffusion; 1.6 M Na+/K+ phosphate, 0.2 M LiSO4, 0.1 M CAPS pH 10.5; space group C2; two MtrR dimers in the asymmetric unit.

B1: MtrR (natural protein)
chain: MRKTKTEALKTKEHLMLAALETFYRKGIARTSLNEIAQAAGVTRGALYWHFKNKEDLFDALFQRICDDIENCIAQDAADAEGGSWTVFRHTLLHFFERLQSNDIHYKFHNILFLKCEHTEQNAAVIAIARKHQAIWREKITAVLTEAVENQDLADDLDKETAVIFIKSTLDGLIWRWFSSGESFDLGKTAPRIIGIMMDNLENHPCLRRK
notes: also called native MtrR; WT MtrR
For the protein B1, the binding result is “binds”.
